According to patent US20240287172A1 (SCIRHOM, published 2024):
Residue numbers refer to the chain shown, from its start.

B1: antibody 3 (antibody, V domains shown)
VH: QVTLKESGPGILQPSQTLSLTCSFSGFSLTTFAMGIGWVRQPSGKGLEWLAHIWWDGEKYNNPVLKSRLTISKDTSKNQVFLRIANVDTPDTATYYCARISSIYYIIDNWGQGTSVTVSS
VL: DIVLTQSPATLSVTPGHSVSLSCRASQSISNNLHWYQKKSHESPRLLIKYVSQSISGIPSRFSGSGSGTDFTLSINSVETEDFGMYFCQQSYNWPLTFGAGTKLELK
notes: mouse IgG, kappa light chain; also called clone #3; purified antibody 3
B2: antibody 48 (antibody, V domains shown)
VH: QVQLQQSGTELVRPGTSVKVSCKASGYAFTNYLIEWVKQRPGQGLEWIGVINPGSGFTKYNEKFKGKATLTADKSSSTVYMHLSSLTSEDSAVYFCARGLYRAMDYWGQGTSVTVSS
VL: DIQMTQSPASQSASLGESVTITCLASQTIATWLAWYQQKPGKSPQLLIYGATTLADGVPSRFSGGGSGTKFSFKISSLQAEDFVSYYCQQLYSTPYTFGGGTKLEIK
notes: mouse IgG, kappa light chain; also called clone #48; purified antibody 48

How the values were obtained:
hiR2-FL-P575A-T7 = biological target: T1, hiR2-FL-P575A-T7 (human, UniProt Q6PJF5 1-856); assay: FACS on MEF-DKO cells expressing the variant, 3 µg/ml antibody
T1 sequence: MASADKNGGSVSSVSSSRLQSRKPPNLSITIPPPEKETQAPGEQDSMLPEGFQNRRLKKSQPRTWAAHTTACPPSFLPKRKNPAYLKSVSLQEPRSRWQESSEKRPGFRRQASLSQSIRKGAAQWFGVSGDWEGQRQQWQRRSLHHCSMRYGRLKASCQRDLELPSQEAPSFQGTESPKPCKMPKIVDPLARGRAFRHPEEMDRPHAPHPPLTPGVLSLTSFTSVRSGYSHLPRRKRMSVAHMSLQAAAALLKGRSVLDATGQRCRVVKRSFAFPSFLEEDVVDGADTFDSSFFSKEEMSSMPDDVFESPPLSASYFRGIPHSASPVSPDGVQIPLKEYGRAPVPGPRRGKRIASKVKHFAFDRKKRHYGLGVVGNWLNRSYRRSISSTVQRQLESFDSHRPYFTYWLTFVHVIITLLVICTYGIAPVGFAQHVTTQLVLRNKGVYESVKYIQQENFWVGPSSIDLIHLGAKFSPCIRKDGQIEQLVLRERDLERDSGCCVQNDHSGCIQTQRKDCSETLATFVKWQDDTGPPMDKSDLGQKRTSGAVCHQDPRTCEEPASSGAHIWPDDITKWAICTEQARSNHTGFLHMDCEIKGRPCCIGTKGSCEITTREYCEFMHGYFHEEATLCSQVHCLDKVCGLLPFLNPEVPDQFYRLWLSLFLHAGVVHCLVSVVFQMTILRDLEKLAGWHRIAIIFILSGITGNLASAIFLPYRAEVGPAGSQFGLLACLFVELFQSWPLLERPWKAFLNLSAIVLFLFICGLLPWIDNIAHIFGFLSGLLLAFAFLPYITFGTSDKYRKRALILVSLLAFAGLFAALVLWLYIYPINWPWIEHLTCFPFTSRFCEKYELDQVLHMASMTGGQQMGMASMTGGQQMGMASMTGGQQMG
In short: (§1)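 Two incubations on ice, each 1 hour: test antibody (3 μg/ml) or FACS buffer only, then PE anti-mouse F(ab′)2 at 1:100 in the dark. Centrifugation and washes used 4° C; staining quantified on a flow cytometer.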

hiR2-FL-H590A-T7 = biological target: T2, hiR2-FL-H590A-T7 (human, UniProt Q6PJF5 1-856); assay: as above
T2 sequence: T1 sequence with A575P, H590A
In short: as §1

Row | Binder | loss of binding vs wild type (hiR2-FL-P575A-T7) | loss of binding vs wild type (hiR2-FL-H590A-T7)
1 | B1 | ≥ 30% | 
2 | B2 |  | ≥ 30%
